Measurements taken from US20090124537A1 (THRASOS, published 2009).
Bridges are numbered along the chain shown (N, C = ends). Where no end group is shown, it is not given here.

B3: bone morphogenetic protein-7 (ligand, UniProt P18075 293-431, looked up)
chain: STGSKQRSQNRSKTPKNQEALRMANVAENSSSDQRQACKKHELYVSFRDLGWQDWIIAPEGYAAYYCEGECAFPLNSYMNATNHAIVQTLVHFINPETVPKPCCAPTQLNAISVLYFDDSSNVILKKYRNMVVRACGCH
modifications: radio-iodinated (125I, lactoperoxidase method) when used as tracer; glycoprotein
notes: also called BMP-7

Key:
[1] = molecular target: B3; test: Scatchard analysis of BMP-7 binding to purified daf-4 ECD
[2] = molecular target: T1, BMP-7 receptor of ROS cell plasma membrane fraction (ROS cell type II BMP receptor) (rat); test: radioligand receptor assay, displacement of 125I-BMP-7 from ROS cell plasma membranes
T1 construct: whole, on cells; Used as a plasma membrane fraction of ROS cells, not as a purified protein; also called BMP-7 receptor-enriched plasma membrane fraction of ROS cells; ROS cell receptor

[3] = molecular target: T1, BMP-7 receptor of ROS cell plasma …; test: radioligand binding of 125I-BMP-7 to ROS cell receptor-enriched plasma membrane fraction
Protocol: Receptors from ROS cells are obtained by a procedure previously described (Dattatreyamurty, B., et al., (1986) J. Biol. Chem. 261.). […] In a typical assay, fixed amounts of ¹²⁵I-labeled sol. […] The assay incubations were carried out in a reaction volume of 300 μl with shaking for 22 hrs. at 4° C. […] The supernatants were aspirated and pellets washed before counting in a gamma counter (Packard Instr. Downers Grove, Ill.).

B1: extracellular domain (ECD) of the type II receptor daf-4, hexa-histidine tagged (receptor)
chain: WANTLVSKVAQSNGTGTIKVSAPAKPTLRRMDNEEDEVISIECVYYDEMECEKSGDCEITKKTCYSEAHLKAVGCLAVFGLPTQEINSTEPYLKVDKPQYKSLGCMPYQHADSMNCENESSCRQGRSFRGGIGMCCCSTNNCNMPDLIEMVNPSLKKDSDNSALLWASTPSNMDLESLDKSSSRASQPELAPEDPEDVEHHHHHH
modifications: heavily glycosylated
notes: Expressed in CHO cells; also called daf-4 ECD; ECD of daf-4 receptor
For B1, the Ka [1] was 2.96e+10 M⁻¹.

B2: F2-3 (peptide)
peptide: CYFDDSSNVICKKYRS
modifications: disulfide 1-11
notes: also called Peptide F2-3; BMP test agent F2-3
In the case of B2, the IC50 [2] is reported as 10 µM.

With B3 the Ka [3] was 4.38e+09 M⁻¹.
